The values that follow come from article doi:10.1101/2020.09.15.297887.

The target in the series is PARP1 (UniProt P09874 1-1014). Kind of series: fluorescence polarization. (Fluorescence polarisation rises when a labelled molecule tumbles more slowly, as on binding a larger partner.)
Chain of PARP1 (P09874 whole entry): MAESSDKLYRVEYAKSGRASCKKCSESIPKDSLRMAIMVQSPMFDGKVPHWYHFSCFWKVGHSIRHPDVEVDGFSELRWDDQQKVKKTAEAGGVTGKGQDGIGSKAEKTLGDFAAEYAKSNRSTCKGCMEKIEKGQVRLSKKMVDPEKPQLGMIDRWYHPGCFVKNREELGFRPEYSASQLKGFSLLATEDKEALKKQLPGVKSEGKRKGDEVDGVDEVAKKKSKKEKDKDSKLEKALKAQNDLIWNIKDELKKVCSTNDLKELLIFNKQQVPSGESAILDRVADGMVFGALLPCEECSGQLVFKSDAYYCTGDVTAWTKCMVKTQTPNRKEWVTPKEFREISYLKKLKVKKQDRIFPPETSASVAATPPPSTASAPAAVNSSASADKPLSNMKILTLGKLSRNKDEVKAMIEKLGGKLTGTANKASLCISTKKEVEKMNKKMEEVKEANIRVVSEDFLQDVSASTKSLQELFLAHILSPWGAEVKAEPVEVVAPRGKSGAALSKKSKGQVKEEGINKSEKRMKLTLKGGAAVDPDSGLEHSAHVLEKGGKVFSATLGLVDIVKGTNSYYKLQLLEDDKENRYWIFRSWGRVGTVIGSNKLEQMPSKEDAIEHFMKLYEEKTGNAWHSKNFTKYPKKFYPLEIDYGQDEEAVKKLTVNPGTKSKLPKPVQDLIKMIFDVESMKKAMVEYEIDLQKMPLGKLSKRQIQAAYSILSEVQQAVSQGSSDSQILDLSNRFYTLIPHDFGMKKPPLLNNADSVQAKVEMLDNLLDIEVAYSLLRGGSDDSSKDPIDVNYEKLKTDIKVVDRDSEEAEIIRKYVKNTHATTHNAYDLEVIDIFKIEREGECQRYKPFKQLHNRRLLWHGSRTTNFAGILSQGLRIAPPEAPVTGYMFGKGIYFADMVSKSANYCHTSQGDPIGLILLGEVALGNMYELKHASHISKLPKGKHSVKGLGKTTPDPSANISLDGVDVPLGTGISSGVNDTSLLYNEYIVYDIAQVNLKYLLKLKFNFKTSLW

As for GCTGAGCTTCTGGTGAAGCTCAGCTCGCGGCAGCTGGTGCTGCCGCGA (structured_DNA, internal fluorescein-dT (iFluorT) at position 8) [DNA dumbbell with single-strand break], binding was put at a Kd of 71 nM. In other words, the double-digit nanomolar range.
